# Assay results from patent publication US7264809B1, “Methods of inhibiting platelet activation and recruitment” (Immunex Corporation, priority 1998, dated 2007).
# B1: E174A: CD39 mutant, Glutamate174 replaced with alanine (protein, UniProt P49961 1-510, looked up, variant E174A)
# Ectonucleoside triphosphate …: MEDTKESNVKTFCSKNILAILGFSSIIAVIALLAVGLTQNKALPENVKYGIVLDAGSSHTSLYIYKWPAEKENDTGVVHQVEECRVKGPGISKFVQKVNEIGIYLTDCMERAREVIPRSQHQETPVYLGATAGMRLLRMESEELADRVLDVVERSLSNYPFDFQGARIITGQEAGAYGWITINYLLGKFSQKTRWFSIVPYETNNQETFGALDLGGASTQVTFVPQNQTIESPDNALQFRLYGKDYNVYTHSFLCYGKDQALWQKLAKDIQVASNEILRDPCFHPGYKKVVNVSDLYKTPCTKRFEMTLPFQQFEIQGIGNYQQCHQSILELFNTSYCPYSQCAFNGIFLPPLQGDFGAFSAFYFVMKFLNLTSEKVSQEKVTEMMKKFCAQPWEEIKTSYAGVKEKYLSEYCFSGTYILSLLLQGYHFTADSWEHIHFIGKIQGSDAGWTLGYMLNLTNMIPAEQPLSTPLSHSTYVFLMVLFSLVLFTVAIIGLLIFHKPSYFWKDMV
# B2: S218A: CD39 mutant, Serine218 replaced with alanine (protein, UniProt P49961 1-510, looked up, variant S218A)
# Ectonucleoside triphosphate …: MEDTKESNVKTFCSKNILAILGFSSIIAVIALLAVGLTQNKALPENVKYGIVLDAGSSHTSLYIYKWPAEKENDTGVVHQVEECRVKGPGISKFVQKVNEIGIYLTDCMERAREVIPRSQHQETPVYLGATAGMRLLRMESEELADRVLDVVERSLSNYPFDFQGARIITGQEEGAYGWITINYLLGKFSQKTRWFSIVPYETNNQETFGALDLGGAATQVTFVPQNQTIESPDNALQFRLYGKDYNVYTHSFLCYGKDQALWQKLAKDIQVASNEILRDPCFHPGYKKVVNVSDLYKTPCTKRFEMTLPFQQFEIQGIGNYQQCHQSILELFNTSYCPYSQCAFNGIFLPPLQGDFGAFSAFYFVMKFLNLTSEKVSQEKVTEMMKKFCAQPWEEIKTSYAGVKEKYLSEYCFSGTYILSLLLQGYHFTADSWEHIHFIGKIQGSDAGWTLGYMLNLTNMIPAEQPLSTPLSHSTYVFLMVLFSLVLFTVAIIGLLIFHKPSYFWKDMV
# B3: pIL2LFlagSolCD39: N-terminally FLAG-tagged solCD39 with human proinsulin/IL2 leader and 12 mature IL2 residues (SEQ ID NO:25) (protein)
# chain: MALWIDRMQLLSCIALSLALVTNSAPTSSSTKKTQLTSSGDYKDDDDKTQNKALPENVKYGIVLDAGSSHTSLYIYKWPAEKENDTGVVHQVEECRVKGPGISKFVQKVNEIGIYLTDCMERAREVIPRSQHQETPVYLGATAGMRLLRMESEELADRVLDVVERSLSNYPFDFQGARIITGQEEGAYGWITINYLLGKFSQKTRWFSIVPYETNNQETFGALDLGGASTQVTFVPQNQTIESPDNALQFRLYGKDYNVYTHSFLCYGKDQALWQKLAKDIQVASNEILRDPCFHPGYKKVVNVSDLYKTPCTKRFEMTLPFQQFEIQGIGNYQQCHQSILELFNTSYCPYSQCAFNGIFLPPLQGDFGAFSAFYFVMKFLNLTSEKVSQEKVTEMMKKFCAQPWEEIKTSYAGVKEKYLSEYCFSGTYILSLLLQGYHFTADSWEHIHFIGKIQGSDAGWTLGYMLNLTNMIPAEQPLSTPLSHST
# modifications: CDS (1)..(1461)
# B4: pIL2LTrim1: huIL2 leader joined to solCD39 with an intervening alanine residue (SEQ ID NO:27) (protein)
# chain: MALWIDRMQLLSCIALSLALVTNSATQNKALPENVKYGIVLDAGSSHTSLYIYKWPAEKENDTGVVHQVEECRVKGPGISKFVQKVNEIGIYLTDCMERAREVIPRSQHQETPVYLGATAGMRLLRMESEELADRVLDVVERSLSNYPFDFQGARIITGQEEGAYGWITINYLLGKFSQKTRWFSIVPYETNNQETFGALDLGGASTQVTFVPQNQTIESPDNALQFRLYGKDYNVYTHSFLCYGKDQALWQKLAKDIQVASNEILRDPCFHPGYKKVVNVSDLYKTPCTKRFEMTLPFQQFEIQGIGNYQQCHQSILELFNTSYCPYSQCAFNGIFLPPLQGDFGAFSAFYFVMKFLNLTSEKVSQEKVTEMMKKFCAQPWEEIKTSYAGVKEKYLSEYCFSGTYILSLLLQGYHFTADSWEHIHFIGKIQGSDAGWTLGYMLNLTNMIPAEQPLSTPLSHST
# B5: Abciximab: platelet-specific chimeric antibody, glycoprotein IIb/IIIa antagonist, trade name ReoPro (antibody, chains of the INN, looked up, V domains shown)
# VH: EVQLQQSGTVLARPGASVKMSCEASGYTFTNYWMHWVKQRPGQGLEWIGAIYPGNSDTSYIQKFKGKAKLTAVTSTTSVYMELSSLTNEDSAVYYCTLYDGYYVFAYWGQGTLVTVSA
# VL: EIVLTQSPVTLSVTPGDSVSLSCRASRDISNNLHWFQQTSHESPRLLIKYASQSMSGIPSRFSGSGSGTDFTLSINSVETEDFGMYFCQQTNSWPYTFGGGTKLEIK
# modifications: Fab
# notes: platelet-specific chimeric antibody, glycoprotein IIb/IIIa antagonist, trade name ReoPro
# Key:
# platelets [1] = experiment: Platelet aggregation in human platelet-rich plasma; assay type: cell-based
# Protocol: After obtaining informed consent from volunteers, blood was collected via plastic tubing using acid citrate-dextrose (38 mM citric acid; 75 mM sodium citrate; 135 mM glucose) as anticoagulant. Where indicated, volunteers had ingested 650 mg acetylsalicylic acid (ASA) 18 h prior to blood donation. […] The stock suspension of PRP was maintained at room temperature under 5% CO2-air. […] Total volumes were adjusted to 300 μl with TSG buffer (Marcus et al., J. Clin. Invest. 88:1690, 1991; Marcus et al., J. Clin. Invest. 99:1351, 1997). […] A mock-treated sample was also prepared in which the FSBA solution was replaced with water. After incubating at 37° for 90 min., the samples were centrifuged in a Centricon-10 filter unit (Amicon Corp.) for 1 hour at 5,500 rpm and buffer exchanged into PBS to remove unreacted material.
# murine platelets = experiment: Ex vivo aggregation of murine platelets; assay type: in vivo, C57BL/6J mice; conditions: PRP 1 hour after soluble CD39 4 mg/kg or aspirin 5 mg/kg
# Protocol: C57BL/6J mice (6-8 wk) were obtained from Jackson Laboratories (Bar Harbor, Me.). […] 80 μL of 3.8% trisodium citrate was added to each mL of blood. […] The PRP contained 400-700×10^3 platelets per μL. All experiments were completed within 2 hours of blood collection. PRP (200 μL) was preincubated, for 3 min. at 37° C., with 100 μL Tris-buffered saline buffer ([…], 5 mM glucose, pH 7.4) in an aggregometer cuvette (Lumiaggregometer; Chrono-Log, Havertown, Pa.), and the platelet agonists ADP, collagen, or sodium arachidonate were added at the final concentrations indicated.
# [2] = Murine model of stroke (middle cerebral artery occlusion); assay type: in vivo, mice
# Protocol: Anesthetized mice were maintained at 37±2° C. during and for 90 min following surgery. A midline neck incision was made and the right carotid artery exposed. Middle cerebral artery occlusion was accomplished by advancing a 13-mm heat-blunt tipped 6-0 nylon suture via an arteriotomy in the external carotid stump. The external carotid artery was cauterized to secure hemostasis, and arterial flow reestablished. […] Surgical staples were used for wound closure. […]
# [3] = Enzymatic (ATPase and ADPase) activity of site-directed mutants; assay type: biochemical
# Protocol: Mutants were assayed for enzymatic (ATPase and ADPase) and platelet inhibitory (dose-dependent inhibition of platelet aggregation) activities. For one series of mutants, residues within the conserved apyrase regions were replaced with alanine.
# [4] = Phosphate release assay for ATPase activity; assay type: biochemical; conditions: 100 μL of 10-fold concentrated CM from COS-1 transfectants; 10× buffer with 30 mM cold ATP
# [5] = Phosphate release assay for ATPase activity; assay type: biochemical; conditions: for ATPase activity, CPM × 10^3 (net counts): Table 3, 5-day 1× COS-1 sups; for ATPase activity, CPM Release × 10^3 (net counts): unconcentrated COS-1 CM
# Protocol: This example describes an ATPase assay that may be used to track enzyme activity. Samples (approximately 100 μl of either concentrated CM or purified polypeptide) are combined with 20 μl of 10× assay buffer (200 mM HEPES, 1.2 M NaCl, 50 mM KCl, 15 mM CaCl2, 15 mM MgCl2 and 3 mM ATP) and sterile water is added to a final volume of 200 μl. Radiolabeled ATP (0.8 μCi γ [^32P] ATP; Amersham, Arlington Heights, Ill.) is added and the mixture incubated for 20 minutes at 37° C. […] After centrifugation (14K rpm for 10 minutes), the supernatant is assayed for free ^32P using a scintillation counter. Data are expressed as raw counts or net counts, or as picomoles of ATP degraded per minute. […] The transfections were repeated and the CM (10, 20 and 30 μL, unconcentrated) was assayed essentially as described in Example 7. […] ATPase levels in CM from COS-1 cells transfected with pIL2LFlagSolCD39 increased with time in culture over at least 4 days post-transfection. To determine whether activity was affected by removal of the N-terminal FLAG® tag, COS-1 cells were transfected with pIL2LFlagSolCD39 and pIL2LSolCD39 and supernatants (sups) were harvested after 5 days. Samples of 10, 20 and 30 μL of 1× sups were assayed for ATPase activity as described in Example 7. […] The expression of Trim1 and Trim2 constructs was analyzed in COS-1 cells cultured in 10 cm plates. After 5 days of incubation, 1× supernatants were examined via ELISA (using anti-CD39) and the phosphate-release assay described in Example 7. […] Expression levels, however, appeared to be reduced 3-4 fold.
# platelets [6] = experiment: Ex vivo additive inhibition of platelet aggregation in patient platelet rich plasma; assay type: cell-based, human; conditions: patient PRP, no SolCD39
molecule,measurement,setting,value
"COc1ccc2c(c1)c(CC(=O)O)c(C)n2C(=O)c1ccc(Cl)cc1 [indomethacin, reference compound]",platelet responsiveness to 5 μM ADP,"platelets [1]; PRP with or without 10 μM indomethacin, CM containing solCD39 from COS-1 and CHO cells",partial reversal
"CC(=O)Oc1ccccc1C(=O)O [Aspirin, acetylsalicylic acid, reference compound]","ex vivo platelet aggregation, collagen",murine platelets; 2.5 μg/ml collagen,strongly aggregated
same,"ex vivo platelet aggregation, ADP",murine platelets; 10 μM ADP,strongly aggregated
same,"ex vivo platelet aggregation, arachidonate",murine platelets; 0.1 mM sodium arachidonate,blocked
same,postischemic cerebral perfusion / blood flow,[2]; 24 hours after stroke induction,no improvement
same,intracerebral hemorrhage,"[2]; following stroke, spectrophotometric",increased
same,cerebral infarct volume,"[2]; preoperative administration, aspirin 5 mg/kg",not statistically significant
B1,effect on platelet responsiveness,platelets [1]; mutant,no effect
same,enzymatic activity of mutant,[3]; alanine replacement in conserved apyrase region,completely devoid
B2,ADPase activity retained,[3]; mutant,less than 10%
B3,"ATPase activity, CPM Release × 10^3 (raw counts)",[4],99.96 CPM × 10^3
same,"ATPase activity, CPM × 10^3 (net counts)",[5]; 10 μL,23.6 CPM × 10^3
same,"ATPase activity, CPM × 10^3 (net counts)",[5]; 20 μL,40.2 CPM × 10^3
same,"ATPase activity, CPM × 10^3 (net counts)",[5]; 30 μL,54.4 CPM × 10^3
same,"ATPase activity, CPM Release × 10^3 (net counts)",[5]; 10 μL,24.71 CPM × 10^3
same,"ATPase activity, CPM Release × 10^3 (net counts)",[5]; 20 μL,43.92 CPM × 10^3
same,"ATPase activity, CPM Release × 10^3 (net counts)",[5]; 30 μL,56.93 CPM × 10^3
B4,Activity (pmol ATP/min/μg) × 10^3,"[5]; specific activity in COS-1 CM, concentration by ELISA",8.38 (pmol ATP/min/μg) × 10^3
B5,"Platelet aggregation, baseline","platelets [6]; ADP, clopidogrel, ticlopidine, abciximab groups also received aspirin",0 ± 0 arbitrary units
same,"Platelet aggregation, baseline",platelets [6]; Collagen,0 ± 0 arbitrary units
same,"Platelet aggregation, baseline",platelets [6]; TRAP,46 ± 6 arbitrary units
